Results taken from publication PMC3542337.

Target: E18A DJ-1-FLAG (in HeLa cells) (human) (UniProt Q99497)
Assay: cross-linking; HeLa cells transfected with FLAG-tagged DJ-1, without or with 20 uM CCCP for 7 hrs; cell extracts treated with 100 uM DSS for 10 min; Western blot with anti-FLAG

ratio of dimer (cells treated with CCCP): 68.7
ratio of dimer (cells without CCCP): 57.2
Substance: E18A DJ-1-FLAG (in HeLa cells) (from UniProt Q99497 1-189) (natural protein)
